Reference: the supplement of paper PMC7877785
± gives the uncertainty stated by the source.

Experiment: self-splicing fitness, log relative to wild type (ln ratio); higher = more splicing; Tetrahymena group I intron in knt gene, E. coli kanamycin selection, DiMSum; sequences stand for … in CUCUCU…GGAGGGAAAAGUUAUCAGGCAUGCACCUGGUAGCUAGUCUUUAAACCAAUAGAUUGCAUCGGUUUAAAAGGCAAGACCGUCAAAUUGCGGGAAAGGGGUCAACAGCCGUUCAGUACCAAGUCUCAGGGGAAACUUUGAGAUGGCCUUGCAAAGGGUAUGGUAAUAAGCUGACGGACAUGGUCCUAACCACGCAGCCAAGUCCUAAGUCAACAGAUCUUCUGUUGAUAUGGAUGCAGUUCACAGACUAAAUGUCGGUCGGGGAAGAUGUAUUCUUCUCAUAAGAUAUAGUCGGACCUCUCCUUAAUGGGAGCUAGCGGAUGAAGUGAUGCAACACUGGAGCCGCUGGGAACUAAUUUGUAUGCGAAAGUAUAUUGAUUAGUUUUGGAGUACUCGUGGUCG
Method in brief: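 The eight P1ex-region nucleotides of an intron in the knt kanamycin-resistance gene on pET-22b(+) were all randomised and the library put into E. coli BL21(DE3). Six replicate transformations were grown overnight at 37°C or 30°C on LB agar with or without 25 μg/mL kanamycin, together with 100 μg/mL carbenicillin, 50 μM IPTG and 0.2% rhamnose. Colonies were pooled and amplicon-sequenced on an Illumina HiSeq 2500. Fitness from DiMSum is the error-weighted combination of wild-type-normalised replicate fold changes, kanamycin over none.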

Row | Sequence | self-splicing fitness (ln) (30 °C) | self-splicing fitness (ln) (37 °C)
1 | AAGGAGCAAUAUUACGCGCC | -2.85 ± 0.24 | -1.19 ± 0.17
2 | AAGGAGCAAUAUUACGCGUC | -2.96 ± 0.37 | 
3 | AAGGAGCAAUAUUACGCUAA | -2.97 ± 0.23 | -1.51 ± 0.2
4 | AAGGAGCAAUAUUACGGCAA | -2.54 ± 0.39 | 
5 | AAGGAGCAAUAUUACGGCAU | -2.77 ± 0.18 | -2.05 ± 0.23
6 | AAGGAGCAAUAUUACGGCCU | -1.62 ± 0.12 | -0.486 ± 0.12
7 | AAGGAGCAAUAUUACGGCGC | -2 ± 0.27 | -2.34 ± 0.48
8 | AAGGAGCAAUAUUACGGGAA | -2.09 ± 0.2 | -3.29 ± 0.24
9 | AAGGAGCAAUAUUACGGUGG | -3.21 ± 0.15 | -2.45 ± 0.27
10 | AAGGAGCAAUAUUACGUACC | -3.01 ± 0.33 | -3.19 ± 0.41
11 | AAGGAGCAAUAUUACGUAGA | -3.27 ± 0.26 | -1.46 ± 0.18
12 | AAGGAGCAAUAUUACGUAUU | -2.95 ± 0.12 | -2.34 ± 0.15
13 | AAGUAGCAAUAUUACGAAGU | -3.02 ± 0.2 | -1.9 ± 0.18
14 | AAGUAGCAAUAUUACGAGCC | -2.87 ± 0.22 | -1.34 ± 0.25
15 | AAGUAGCAAUAUUACGCACU | -0.686 ± 0.095 | -0.854 ± 0.14
16 | AAGUAGCAAUAUUACGCAGA | -4.11 ± 0.24 | -1.54 ± 0.1
17 | AAGUAGCAAUAUUACGCAGU |  | -1.76 ± 0.19
18 | AAGUAGCAAUAUUACGCCGC | -3.12 ± 0.38 | 
19 | AAGUAGCAAUAUUACGCCUA | -0.227 ± 0.11 | -0.477 ± 0.12
20 | AAGUAGCAAUAUUACGCCUG | -0.259 ± 0.14 | -0.00805 ± 0.14
21 | AAGUAGCAAUAUUACGCGCC | -0.381 ± 0.2 | -0.0421 ± 0.23

Row | Sequence | self-splicing fitness (ln) (30 °C) | self-splicing fitness (ln) (37 °C)
22 | AAGUAGCAAUAUUACGCGGU | -2.47 ± 0.31 | -2.59 ± 0.39
23 | AAGUAGCAAUAUUACGCGUG | -0.856 ± 0.067 | -0.191 ± 0.092
24 | AAGUAGCAAUAUUACGCUAU | -4.06 ± 0.35 | -1.9 ± 0.17
25 | AAGUAGCAAUAUUACGCUGA | -1.36 ± 0.15 | -0.457 ± 0.14
26 | AAGUAGCAAUAUUACGCUUG | -1.6 ± 0.097 | -0.42 ± 0.1
27 | AAGUAGCAAUAUUACGGGUC | -3.44 ± 0.16 | -2.84 ± 0.19
28 | AAGUAGCAAUAUUACGUACU | -0.863 ± 0.19 | -0.429 ± 0.19
29 | AAGUAGCAAUAUUACGUCCU | -0.128 ± 0.11 | 0.294 ± 0.14
30 | AAGUAGCAAUAUUACGUGCU | -1.29 ± 0.08 | -0.982 ± 0.1
31 | AAGUAGCAAUAUUACGUGGU | -3.68 ± 0.18 | -1.93 ± 0.15
32 | AAGUAGCAAUAUUACGUUAU | -1.93 ± 0.13 | -0.642 ± 0.11
33 | AAGUAGCAAUAUUACGUUCA | -0.86 ± 0.081 | 0.409 ± 0.096
34 | AAUAAGCAAUAUUACGACCA | -0.614 ± 0.18 | 0.141 ± 0.29
35 | AAUAAGCAAUAUUACGAGAA | -3.24 ± 0.38 | -1.55 ± 0.27
36 | AAUAAGCAAUAUUACGAGUG | -1.05 ± 0.07 | -0.56 ± 0.09
37 | AAUAAGCAAUAUUACGAUAA | -1.9 ± 0.19 | -1.03 ± 0.18
38 | AAUAAGCAAUAUUACGAUUA | -0.789 ± 0.12 | 0.438 ± 0.14
39 | AAUAAGCAAUAUUACGCGAG | -1.14 ± 0.097 | -0.557 ± 0.1
40 | AAUAAGCAAUAUUACGCUUU | -3.49 ± 0.21 | -3.26 ± 0.23
41 | AAUAAGCAAUAUUACGGAGG | -3.19 ± 0.18 | -1.93 ± 0.2
42 | AAUAAGCAAUAUUACGGAUA | -2.35 ± 0.14 | -1.68 ± 0.15

Row | Sequence | self-splicing fitness (ln) (30 °C) | self-splicing fitness (ln) (37 °C)
43 | AAUAAGCAAUAUUACGGCUU | -0.403 ± 0.12 | -0.12 ± 0.14
44 | AAUAAGCAAUAUUACGGUCG | -1.03 ± 0.098 | -0.232 ± 0.12
45 | AAUAAGCAAUAUUACGUGGU | -3.77 ± 0.17 | -2.63 ± 0.14
46 | AAUAAGCAAUAUUACGUUCA | -0.963 ± 0.084 | -0.348 ± 0.12
47 | AAUCAGCAAUAUUACGAAAC | -1.97 ± 0.19 | -0.858 ± 0.16
48 | AAUCAGCAAUAUUACGACAC | -0.56 ± 0.12 | -1.46 ± 0.15
49 | AAUCAGCAAUAUUACGACCC | 0.168 ± 0.15 | -0.615 ± 0.16
50 | AAUCAGCAAUAUUACGACUA | 0.113 ± 0.14 | -0.783 ± 0.12
51 | AAUCAGCAAUAUUACGAGAG | -1.82 ± 0.15 | -1.13 ± 0.13
52 | AAUCAGCAAUAUUACGAGUC | -2.05 ± 0.11 | -1.21 ± 0.11
53 | AAUCAGCAAUAUUACGAUCU | 0.0008 ± 0.059 | 0.914 ± 0.088
54 | AAUCAGCAAUAUUACGAUGC | -0.408 ± 0.076 | 0.219 ± 0.096
55 | AAUCAGCAAUAUUACGCAAG | -0.971 ± 0.068 | -0.72 ± 0.087
56 | AAUCAGCAAUAUUACGCCCG | -0.416 ± 0.14 | -0.489 ± 0.16
57 | AAUCAGCAAUAUUACGCCUC | -1.12 ± 0.13 | -0.226 ± 0.17
58 | AAUCAGCAAUAUUACGCGCU | -1.16 ± 0.075 | -0.732 ± 0.084
59 | AAUCAGCAAUAUUACGCUCG | -0.0659 ± 0.091 | -0.114 ± 0.12
60 | AAUCAGCAAUAUUACGGAUA | -0.0268 ± 0.069 | 0.49 ± 0.086
61 | AAUCAGCAAUAUUACGGAUG | -0.144 ± 0.066 | 0.153 ± 0.085
